# Source: patent US20110166062A1 (INDIANA UNIVERSITY RESEARCH AND TECHNOLOGY, published 2011)
# Where two headings read alike, the source gives them in different places. *1 amine or outer side, *2 acyl side, *3 side chain or, on linkers, in order; H or OH if unused. Where no end group is shown, it is not given here. Side-chain parts run from the residue outwards. [ ]: non-standard residue; d: D form. The star is where a group is joined. PEG 40 kDa = PEG (40 kDa) covalently attached to Cys; γGlu = O=C(O)[C@H](CCC(=O)[*:2])N[*:1]; Palmitoyl = CCCCCCCCCCCCCCCC(=O)*; Met(O) = CS(=O)CC[C@H](N)C(=O)O; Myristoyl = CCCCCCCCCCCCCC(=O)*; Nle = CCCC[C@H](N)C(=O)O; Orn = NCCC[C@H](N)C(=O)O; Dab = NCC[C@H](N)C(=O)O; Dap = NC[C@H](N)C(=O)O; Aib = CC(C)(N)C(=O)O; Carbamoyl = NC(=O)*; Acm = CC(=O)NC*
# T1: GIP receptor (UniProt P48546 22-466)
# T1 sequence (looked up): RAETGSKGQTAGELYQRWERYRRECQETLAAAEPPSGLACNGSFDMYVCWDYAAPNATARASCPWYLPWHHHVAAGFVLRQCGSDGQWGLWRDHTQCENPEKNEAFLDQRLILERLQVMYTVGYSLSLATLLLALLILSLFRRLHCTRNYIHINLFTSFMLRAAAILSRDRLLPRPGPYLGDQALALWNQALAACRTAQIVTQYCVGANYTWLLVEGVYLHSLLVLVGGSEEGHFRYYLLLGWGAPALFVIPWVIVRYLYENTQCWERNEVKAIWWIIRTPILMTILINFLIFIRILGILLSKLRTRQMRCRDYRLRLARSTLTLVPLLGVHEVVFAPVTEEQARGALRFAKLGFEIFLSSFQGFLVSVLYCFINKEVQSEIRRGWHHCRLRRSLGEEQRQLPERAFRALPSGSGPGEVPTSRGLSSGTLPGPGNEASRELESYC
# T2: GIP receptor (UniProt P48546 22-466)
# T2 sequence (looked up): T1 sequence (looked up)
# B1: mt-384 (peptide)
# peptide: Y[Aib]QGTFTSDK([γGlu-γGlu-Palmitoyl])SIYLDKQAA[Aib]EFVNWLLAGGPSSGAPPPS-NH2
# modifications: N-terminus assumed
# SMILES: CCCCCCCCCCCCCCCC(=O)N[C@@H](CCC(=O)N[C@@H](CCC(=O)NCCCC[C@H](NC(=O)[C@H](CC(=O)O)NC(=O)[C@H](CO)NC(=O)[C@@H](NC(=O)[C@H](Cc1ccccc1)NC(=O)[C@@H](NC(=O)CNC(=O)[C@H](CCC(N)=O)NC(=O)C(C)(C)NC(=O)[C@@H](N)Cc1ccc(O)cc1)[C@@H](C)O)[C@@H](C)O)C(=O)N[C@@H](CO)C(=O)N[C@H](C(=O)N[C@@H](Cc1ccc(O)cc1)C(=O)N[C@@H](CC(C)C)C(=O)N[C@@H](CC(=O)O)C(=O)N[C@@H](CCCCN)C(=O)N[C@@H](CCC(N)=O)C(=O)N[C@@H](C)C(=O)N[C@@H](C)C(=O)NC(C)(C)C(=O)N[C@@H](CCC(=O)O)C(=O)N[C@@H](Cc1ccccc1)C(=O)N[C@H](C(=O)N[C@@H](CC(N)=O)C(=O)N[C@@H](Cc1c[nH]c2ccccc12)C(=O)N[C@@H](CC(C)C)C(=O)N[C@@H](CC(C)C)C(=O)N[C@@H](C)C(=O)NCC(=O)NCC(=O)N1CCC[C@H]1C(=O)N[C@@H](CO)C(=O)N[C@@H](CO)C(=O)NCC(=O)N[C@@H](C)C(=O)N1CCC[C@H]1C(=O)N1CCC[C@H]1C(=O)N1CCC[C@H]1C(=O)N[C@@H](CO)C(N)=O)C(C)C)[C@@H](C)CC)C(=O)O)C(=O)O
# B2: mt-343 (peptide)
# peptide: YXEGTFTSDYSIYLDKQAAXEFVNWLLAGGPSSGAPPPSKC
# modifications: AIB at position 20 (Example 25); listed among the acylated glucagon peptides in paragraph 284; other non-standard residues as in the sequence listing
# B3: mt-344 (peptide)
# peptide: B2 peptide
# modifications: AIB at position 20 (Example 25); other non-standard residues as in the sequence listing
# B4: HSDab(Ac)…ibRRAADFVAWLLDTGPSSGAPPPS amide (peptide)
# peptide: HS[Dab](Ac)GTFTSDYSKYLD[Aib]RRAADFVAWLLDTGPSSGAPPPS-NH2
# modifications: N-terminus assumed
# SMILES: CC(=O)NCC[C@H](NC(=O)[C@H](CO)NC(=O)[C@@H](N)Cc1c[nH]cn1)C(=O)NCC(=O)N[C@H](C(=O)N[C@@H](Cc1ccccc1)C(=O)N[C@H](C(=O)N[C@@H](CO)C(=O)N[C@@H](CC(=O)O)C(=O)N[C@@H](Cc1ccc(O)cc1)C(=O)N[C@@H](CO)C(=O)N[C@@H](CCCCN)C(=O)N[C@@H](Cc1ccc(O)cc1)C(=O)N[C@@H](CC(C)C)C(=O)N[C@@H](CC(=O)O)C(=O)NC(C)(C)C(=O)N[C@@H](CCCNC(=N)N)C(=O)N[C@@H](CCCNC(=N)N)C(=O)N[C@@H](C)C(=O)N[C@@H](C)C(=O)N[C@@H](CC(=O)O)C(=O)N[C@@H](Cc1ccccc1)C(=O)N[C@H](C(=O)N[C@@H](C)C(=O)N[C@@H](Cc1c[nH]c2ccccc12)C(=O)N[C@@H](CC(C)C)C(=O)N[C@@H](CC(C)C)C(=O)N[C@@H](CC(=O)O)C(=O)N[C@H](C(=O)NCC(=O)N1CCC[C@H]1C(=O)N[C@@H](CO)C(=O)N[C@@H](CO)C(=O)NCC(=O)N[C@@H](C)C(=O)N1CCC[C@H]1C(=O)N1CCC[C@H]1C(=O)N1CCC[C@H]1C(=O)N[C@@H](CO)C(N)=O)[C@@H](C)O)C(C)C)[C@@H](C)O)[C@@H](C)O
# B5: mt-345 (peptide)
# peptide: HXQGTFTSDYSKYLDEQAAKEFICWLMNGGPSSGAPPPSK
# modifications: listed among the acylated glucagon peptides in paragraph 284; non-standard residues as in the sequence listing
# B6: mt-259 (peptide)
# peptide: Y[Aib]QGTFTSDYSIYLDSQAA[Aib]EFVCWLLAG-NH2
# modifications: N-terminus assumed
# SMILES: CC[C@H](C)[C@H](NC(=O)[C@H](CO)NC(=O)[C@H](Cc1ccc(O)cc1)NC(=O)[C@H](CC(=O)O)NC(=O)[C@H](CO)NC(=O)[C@@H](NC(=O)[C@H](Cc1ccccc1)NC(=O)[C@@H](NC(=O)CNC(=O)[C@H](CCC(N)=O)NC(=O)C(C)(C)NC(=O)[C@@H](N)Cc1ccc(O)cc1)[C@@H](C)O)[C@@H](C)O)C(=O)N[C@@H](Cc1ccc(O)cc1)C(=O)N[C@@H](CC(C)C)C(=O)N[C@@H](CC(=O)O)C(=O)N[C@@H](CO)C(=O)N[C@@H](CCC(N)=O)C(=O)N[C@@H](C)C(=O)N[C@@H](C)C(=O)NC(C)(C)C(=O)N[C@@H](CCC(=O)O)C(=O)N[C@@H](Cc1ccccc1)C(=O)N[C@H](C(=O)N[C@@H](CS)C(=O)N[C@@H](Cc1c[nH]c2ccccc12)C(=O)N[C@@H](CC(C)C)C(=O)N[C@@H](CC(C)C)C(=O)N[C@@H](C)C(=O)NCC(N)=O)C(C)C
# Assays:
# Assay in all cases: cell-based or functional assay
# glucagon receptor [1] = target: T3, glucagon receptor (UniProt P47871 26-477, limits assumed)
# T3 sequence (P47871 26-477 limits assumed): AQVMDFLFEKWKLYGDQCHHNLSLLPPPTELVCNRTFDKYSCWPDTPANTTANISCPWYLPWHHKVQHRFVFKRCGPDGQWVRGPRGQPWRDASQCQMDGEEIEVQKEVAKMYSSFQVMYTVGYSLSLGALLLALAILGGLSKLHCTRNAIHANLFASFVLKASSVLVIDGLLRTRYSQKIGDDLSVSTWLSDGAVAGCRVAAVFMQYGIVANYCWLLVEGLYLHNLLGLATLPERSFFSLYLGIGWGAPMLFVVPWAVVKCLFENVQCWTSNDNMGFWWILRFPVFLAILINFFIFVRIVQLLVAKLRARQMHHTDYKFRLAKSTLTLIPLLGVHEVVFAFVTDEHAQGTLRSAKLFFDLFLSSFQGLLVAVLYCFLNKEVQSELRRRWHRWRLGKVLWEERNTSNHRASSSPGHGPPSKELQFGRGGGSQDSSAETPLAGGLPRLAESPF
# glucagon receptor [2] = target: T3, glucagon receptor; remark: listed apart in the source
# GLP-1 receptor [3] = target: T4, GLP-1 receptor (UniProt P43220 24-463, limits assumed)
# GIP receptor [4] = target: T1, GIP receptor
# glucagon receptor [5] = target: T3, glucagon receptor; remark: listed apart in the source
# GLP-1 receptor [6] = target: T4, GLP-1 receptor; remark: listed apart in the source
# GIP receptor [7] = target: T1, GIP receptor; remark: listed apart in the source
# glucagon receptor [8] = target: T3, glucagon receptor; remark: listed apart in the source
# GLP-1 receptor [9] = target: GLP-1 receptor (UniProt P43220 24-463, limits assumed); remark: listed apart in the source
# GIP receptor [10] = target: T2, GIP receptor; remark: listed apart in the source
# glucagon receptor [11] = target: glucagon receptor (UniProt P47871 26-477, limits assumed); remark: listed apart in the source
# Target sequence in this assay (P47871 26-477 limits assumed): as above
binder,measurement,setting,value
HS[Orn](Ac)GTFTSDYSKYLDTRRAAEFVAWL[Nle]DE [Peptide J backbone with Orn(Ac) at position 3],% activity*,glucagon receptor [1],7%
same,EC50 at Glucagon Receptor,glucagon receptor [1],0.92 nM
Y[Aib]EGTFTSDYSIYLDKQAA[Aib]EFVC(PEG 40 kDa)WLLAGGPSSGAPPPSK(Myristoyl)-NH2 [mt-353],"EC50, nM; Glucagon Receptor",glucagon receptor [2],12.5 nM
same,relative activity; Glucagon Receptor,glucagon receptor [2],0.17%
same,"EC50, nM; GLP-1 Receptor",GLP-1 receptor [3],0.0049 nM
same,relative activity; GLP-1 Receptor,GLP-1 receptor [3],129%
same,"EC50, nM; GIP Receptor",GIP receptor [4],0.0035 nM
same,relative activity; GIP Receptor,GIP receptor [4],103%
B1,% Relative activity at the Receptor for Glucagon,glucagon receptor [5],228%
same,% Relative activity at the Receptor for GLP-1,GLP-1 receptor [6],349%
same,% Relative activity at the Receptor for GIP,GIP receptor [7],808%
Y[Aib]EGTFTSDK(Myristoyl)SIYLDKQAA[Aib]EFVC(PEG 40 kDa)WLLAGGPSSGAPPPS-NH2 [mt-341],"EC50, nM; Glucagon Receptor",glucagon receptor [2],499 nM
same,relative activity; Glucagon Receptor,glucagon receptor [2],0.01%
same,"EC50, nM; GLP-1 Receptor",GLP-1 receptor [3],0.0636 nM
same,relative activity; GLP-1 Receptor,GLP-1 receptor [3],14.6%
same,"EC50, nM; GIP Receptor",GIP receptor [4],0.0566 nM
same,relative activity; GIP Receptor,GIP receptor [4],27.4%
HS[Dap](Carbamoyl)GTFTSDYSKYLDTRRAAEFVAWL[Nle]DE [Peptide J backbone with Dap(urea) at position 3],% activity*,glucagon receptor [1],13%
same,EC50 at Glucagon Receptor,glucagon receptor [1],0.48 nM
B2,"EC50, nM; Glucagon Receptor",glucagon receptor [2],41.1 nM
same,relative activity; Glucagon Receptor,glucagon receptor [2],0.07%
same,"EC50, nM; GLP-1 Receptor",GLP-1 receptor [3],0.0224 nM
same,relative activity; GLP-1 Receptor,GLP-1 receptor [3],41.5%
same,"EC50, nM; GIP Receptor",GIP receptor [4],0.0243 nM
same,relative activity; GIP Receptor,GIP receptor [4],63.8%
B3,"EC50, nM; Glucagon Receptor",glucagon receptor [2],159 nM
same,relative activity; Glucagon Receptor,glucagon receptor [2],0.02%
same,"EC50, nM; GLP-1 Receptor",GLP-1 receptor [3],0.089 nM
same,relative activity; GLP-1 Receptor,GLP-1 receptor [3],10.4%
same,"EC50, nM; GIP Receptor",GIP receptor [4],0.0319 nM
same,relative activity; GIP Receptor,GIP receptor [4],48.6%
HSC(Acm)GTFTSDYSKYLDTRRAAEFVAWL[Nle]DE [Peptide J backbone with C(Acm) at position 3],% activity*,glucagon receptor [1],33%
HS[Dab](Ac)GTFTSDYSKYLD[Aib]RRATDFVTWLLDE [HSDab(Ac)…ibRRATDFVTWLLDE],% activity*,glucagon receptor [8],46%
same,EC50 (nM) at Glucagon Receptor,glucagon receptor [8],0.057 nM
B4,% activity*,glucagon receptor [8],113%
same,EC50 (nM) at Glucagon Receptor,glucagon receptor [8],0.023 nM
HS[Dab](Ac)GTFTSDYSKYLDTRRAAEFVAWL[Nle]DE [Peptide J backbone with Dab(Ac) at position 3],% activity*,glucagon receptor [1],19%
same,EC50 at Glucagon Receptor,glucagon receptor [1],0.31 nM
HSQGTFTSDYSKYLDTRRAAEFVAWL[Nle]DE [Peptide J backbone with Q at position 3],% activity*,glucagon receptor [1],25%
HS[Met(O)]GTFTSDYSKYLDTRRAAEFVAWL[Nle]DE [Peptide J backbone with M(O) at position 3],% activity*,glucagon receptor [1],7%
same,EC50 at Glucagon Receptor,glucagon receptor [1],0.91 nM
B5,relative activity; Glucagon Receptor,glucagon receptor [2],193%
same,relative activity; GLP-1 Receptor,GLP-1 receptor [3],153%
same,relative activity; GIP Receptor,GIP receptor [4],4.99%
HSQGTFTSDYSKYLD[Aib]RRAADFVAWLMDE [Peptide K backbone with Q at position 3],% activity*,glucagon receptor [1],15%
B6,EC50,GLP-1 receptor [9],0.0189 nM
same,relative activity,GLP-1 receptor [9],63%
same,EC50,GIP receptor [10],0.0799 nM
same,relative activity,GIP receptor [10],12%
same,EC50,glucagon receptor [11],0.297 nM
same,relative activity,glucagon receptor [11],23.1%
HS[Dab](Ac)GTFTSDYSKYLD[Aib]RRAADFVAWLMDE [Peptide K backbone with Dab(Ac) at position 3],% activity*,glucagon receptor [1],86%
same,EC50 at Glucagon Receptor,glucagon receptor [1],0.07 nM
HS[Dab](Ac)GTFTSDYSKYLD[Aib]RRASDFVSWLLDE [HSDab(Ac)…ibRRASDFVSWLLDE],% activity*,glucagon receptor [8],54%
same,EC50 (nM) at Glucagon Receptor,glucagon receptor [8],0.048 nM
